B1: T006C: single-substitution thermolysin variant (SEQ ID NO:3 numbering) (protein, listed as Geobacillus caldoproteolyticus)
chain: ITGTSCVGVGRGVLGDQKNINTTYSTYYYLQDNTRGNGIFTYDAKYRTTLPGSLWADADNQFFASYDAPAVDAHYYAGVTYDYYKNVHNRLSYDGNNAAIRSSVHYSQGYNNAFWNGSQMVYGDGDGQTFIPLSGGIDVVAHELTHAVTDYTAGLIYQNESGAINEAISDIFGTLVEFYANKNPDWEIGEDVYTPGISGDSLRSMSDPAKYGDPDHYSKRYTGTQDNGGVHINSGIINKAAYLISQGGTHYGVSVVGIGRDKLGKIFYRALTQYLTPTSNFSQLRAAAVQSATDLYGSTSQEVASVKQAFDAVGVK
B2: Y151S: single-substitution thermolysin variant (SEQ ID NO:3 numbering) (protein, listed as Geobacillus caldoproteolyticus)
chain: ITGTSTVGVGRGVLGDQKNINTTYSTYYYLQDNTRGNGIFTYDAKYRTTLPGSLWADADNQFFASYDAPAVDAHYYAGVTYDYYKNVHNRLSYDGNNAAIRSSVHYSQGYNNAFWNGSQMVYGDGDGQTFIPLSGGIDVVAHELTHAVTDSTAGLIYQNESGAINEAISDIFGTLVEFYANKNPDWEIGEDVYTPGISGDSLRSMSDPAKYGDPDHYSKRYTGTQDNGGVHINSGIINKAAYLISQGGTHYGVSVVGIGRDKLGKIFYRALTQYLTPTSNFSQLRAAAVQSATDLYGSTSQEVASVKQAFDAVGVK
B3: T049D: single-substitution thermolysin variant (SEQ ID NO:3 numbering) (protein, listed as Geobacillus caldoproteolyticus)
chain: ITGTSTVGVGRGVLGDQKNINTTYSTYYYLQDNTRGNGIFTYDAKYRTDLPGSLWADADNQFFASYDAPAVDAHYYAGVTYDYYKNVHNRLSYDGNNAAIRSSVHYSQGYNNAFWNGSQMVYGDGDGQTFIPLSGGIDVVAHELTHAVTDYTAGLIYQNESGAINEAISDIFGTLVEFYANKNPDWEIGEDVYTPGISGDSLRSMSDPAKYGDPDHYSKRYTGTQDNGGVHINSGIINKAAYLISQGGTHYGVSVVGIGRDKLGKIFYRALTQYLTPTSNFSQLRAAAVQSATDLYGSTSQEVASVKQAFDAVGVK

Key:
[1] = Stability assay in 25% TIDE 2X detergent with DTPA (residual Abz-AGLA-Nba protease activity); format: physicochemical; conditions: 60 min at 32°C; variant residual AGLA activity divided by wild-type residual activity
Summary of the method: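 Thermolysin variant culture supernatants stressed in TIDE 2× detergent, with or without DTPA: 60 min at 32° C or 180 min at 50° C. Residual versus unstressed activity on Abz-AGLA-Nba read kinetically at 25° C (Ex 350/Em 420). Performance index is variant residual activity divided by wild-type thermolysin residual activity.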

[2] = Stability assay in 25% TIDE 2X detergent without DTPA (residual Abz-AGLA-Nba protease activity); format: physicochemical; conditions: 180 min at 50°C; variant residual AGLA activity divided by wild-type residual activity
Method: The stability of thermolysin and variants thereof was measured after incubation under defined conditions in the presence of 25% TIDE® 2× detergent. The initial and residual activity was determined.
MTPs were obtained from Costar (type 9017) and from Greiner (black plate, type 655076). Test Method Unstressed Conditions:
First, 20 μl thermolysin containing culture supernatant was diluted with 180 μl MES assay buffer. Then, 20 μl diluted supernatant was diluted further with 180 μl MES assay buffer. Subsequently 10 μl of this dilution was transferred into 190 μl AGLA-substrate solution in a pre-warmed plate (Greiner 655076) at 25° C. Any air bubbles present were blown away and the plate was measured according to the AGLA protease assay protocol described below.
First, 20 μl of culture supernatant was diluted with 180 μl 27.5% TIDE®+detergent solution and placed in the iEMS shaker. The plate covered with a plate seal was incubated for a total of 60 minutes at 32° C. at 900 rpm. In addition, 20 μl of culture supernatant was diluted with 180 μl 27.5% TIDE®−solution and placed in the iEMS shaker. This plate covered with a plate seal was incubated for a total of 180 minutes at 50° C. at 900 rpm.
Subsequently after the respective incubations, 20 μl of either of these solutions were diluted with 180 μl MES assay buffer and 10 μl of this dilution were diluted with 190 μl AGLA-substrate solution in a pre-warmed plate (Greiner 655076) at 25° C.
Fluorescence measurements were taken at excitation of 350 nm and emission of 420 nm. The spectrofluorometer software calculated the reaction rates (=slope) of the increase in fluorescence for each well to a linearly regressed line of (milli-) RFU/min. The ratio of the residual and initial AGLA activity was used to express the 25% TIDE® 2× stability as follows: Percentage of residual activity=[slope of stressed]*100/[slope of unstressed]
For each sample (thermolysin and variants thereof) the performance index was calculated by dividing the residual activity of the variant by the residual activity of thermolysin. The performance index compared the stability of the variant and the standard thermolysin enzyme (e.g., wild type or parental enzyme), determined under the same conditions.
In these experiments, the liberation of Abz-AG by protease cleavage of Abz-AGLA-Nba was monitored by fluorescence spectrometry (Ex. 350/Em. 420). The rate of appearance of Abz-AG was a measure of proteolytic activity.
The Abz-AGLA-Nba assay solution was prepared by adding 1 ml of the Abz-AGLA-Nba stock to 19 ml MES substrate buffer and mixed well for at least 2 minutes. Subsequently the thermolysin or variants thereof containing culture supernatants were diluted with MES assay buffer to a concentration of 1-6 μg protein per ml.
The assay was performed by adding 10 μl of diluted protease solution to each well, followed by the addition of 190 μl Abz-AGLA-Nba assay solution that was pre-equilibrated for at least 15 minutes at 25° C. The solutions were vigorously mixed, and the liberation of Abz-AG by protease cleavage of Abz-AGLA-Nba was monitored by fluorescence spectrometry at 25° C. in kinetic mode with excitation set at 350 nm and emission set at 420 nm. The rate of appearance of Abz-AG was a measure of proteolytic activity in the samples. The protease activity was expressed as RFU (relative fluorescence units·min^−1).
As described in Example 1, the stability of thermolysin variants was measured by determining the AGLA activity before and after incubation in the presence of TIDE® 2× heavy duty liquid (HDL) detergent at an elevated temperature. The tables contain the relative stability values compared to wild-type thermolysin, which is the quotient of the variant residual activity divided by the wild-type residual activity. A value greater than one indicates higher stability in the presence of detergent. […]

Molecule	PI (relative stability), 25% TIDE 2X with DTPA [1]	PI (relative stability), 25% TIDE 2X without DTPA [2]
B1	1.03	1.07
B2	1.23	1.17
B3	1.05	1.28
